The values that follow come from patent US20260258397A1, “REAGENTS AND SYSTEMS FOR […]” (priority 2023, published 2026).

Residue numbers refer to the chain shown, from its start.

The target of the experiment is ΔN-HAB1 (HAB1 Δ1-178), recombinant (Arabidopsis) (UniProt Q9CAJ0). Description: cell-based or functional assay.
Chain of ΔN-HAB1 (HAB1 Δ1-178), recombinant (Arabidopsis) (Q9CAJ0 179-511, stated change not applied): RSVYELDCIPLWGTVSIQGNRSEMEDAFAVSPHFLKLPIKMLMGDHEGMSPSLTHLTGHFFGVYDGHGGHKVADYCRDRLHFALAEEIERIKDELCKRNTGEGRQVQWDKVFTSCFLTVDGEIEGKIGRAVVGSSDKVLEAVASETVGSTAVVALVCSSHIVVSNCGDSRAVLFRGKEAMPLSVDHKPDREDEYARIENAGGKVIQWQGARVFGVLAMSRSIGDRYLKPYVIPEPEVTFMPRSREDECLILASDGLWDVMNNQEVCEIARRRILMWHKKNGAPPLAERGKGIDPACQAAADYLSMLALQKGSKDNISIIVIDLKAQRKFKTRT

B1: 6xHis-PYR1^WIN, recombinant (designed binder, not shown: small tags and cut ends)
chain: MPSELTPEERSELKNSIAEFHTYQLDPGSCSSLHAQRIHAPPELVWSIVRRFDKPQTYQHFIKSCSVEQNFEMRVGCTRDVIVISGLPANTSTERLDILDDERRVTGFSIIGGEHRLTNYKSVTTVHRFEKENRIWTVVLESYVVDMPEGNSEDDTRMAIDTVVKLNLQKLATVAEAMARNSGDGSGSQVT
For the molecule B1, the EC50 for HAB1 inhibition (in vitro phosphatase activity, fluorogenic substrate; the ligand WIN 55,212-2 is titrated, 50 nM receptor, 25 nM ΔN-HAB1) is 72 nM.

B2: 6xHis-PYR1^4F, recombinant (designed binder, not shown: small tags and cut ends)
chain: B1 chain with Q59K, H115Q, Y120G, A159V, I160G
B2: the EC50 for HAB1 inhibition (in vitro phosphatase activity, fluorogenic substrate; the ligand 4F-MDMB-BUTINACA is titrated, 25 nM receptor, 25 nM ΔN-HAB1) was 102 nM.

B3: PYR1^PIRI, recombinant (designed binder)
chain: B1 chain with Q59R, S92M, N119S, S122Q, E130G, A159T, I160T, V174A
Regarding B3, the EC50 of receptor-mediated inhibition of HAB1 phosphatase activity in vitro (ligand pirimiphos-methyl titrated) is 58 nM.

B4: PYR1^DIAZI, recombinant (designed binder)
chain: B1 chain with E8G, Q59K, V81Y, L87M, F108Y, M158V, A159G, I160V
Take B4: the EC50 of receptor-mediated inhibition of HAB1 phosphatase activity in vitro (ligand diazinon titrated) was 36 nM.
